# Assay: yeast display, Sf9 membrane polyspecificity reagent, FACS + sequencing; frameworks hold sequencing errors
# How it was run: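 After 36–48 hours of galactose induction, yeast (Saccharomyces cerevisiae BJ5465) displaying a synthetic nanobody library were stained at 4 °C for 1 hour with 10% biotinylated, detergent-solubilized Sf9 membrane reagent. Streptavidin microbeads enriched the stained cells before FACS sorting into low and high (top ~1%) gates on anti-HA and streptavidin fluorescence. Each clone's polyreactivity label reflects its gate of origin.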
row,Sequence,polyreactivity (PSR sort gate)
1,QVQLVESGGGLVQAGGSLRLSCAASGRIFTYYAMGWYRQAPGKVRELVAAISSGGSTYYADSVKGRFTISRDNAKTTVYLQMNSLTPEDTAVYYCAAEPSYYPYLSPTYGYWGQGTQVTVSS,low polyreactivity
2,QVQLHESGGVQAGGSLRLSCAASGYISRSDVMGWYRQAPGKERELVATINNGTITYYADSVKGRFTISRDNAKNTVYLQMNSLKPEDTAVHYCAVVQSDTDSLYYWGQGTQVTVSS,low polyreactivity
3,QVQLVESGGCLVQAGGSLRLSCAASGSIFGAYVMGWYRQAPGKERELVAAITRRGGSTYYADSVKGRFTISRDNAKNTVYLQMNSLKPEDTAVYYCAARRGAGDGYWGQGTQVTVSS,high polyreactivity
4,QVQLVESGGGLVQAGGSLRLSCAASGSIFASNAMGWYRQEPGKEREFVAAITWRTDRTYYADSVKGRFTISRDNEKNTVYLQMNSLKPEDTAGYYCAADTWFYRFYYWGQGTQVTVSS,high polyreactivity
5,QVQLVESGVGLVQAGGSLRLSCAASGFIFYRNAMGWYRPAPGKERELVAGISRVGSTYYADSVKGRFTISRDNAKNTVYLQMKSLKPEDTAVYYCATSTYAYRRNSYYYTRPRFGYWGQGTQVSVSS,high polyreactivity
6,QVHLVESGGGIVQAGGSLRLSCAASGSIFKYYPMGWYRQAAGKERELVAVISSGGRTYYADSVKGRFTISRDNAKNTVYLQMNSLKPEDTAVYYCAVYRTFRYRYDSWGQGTQVTVSS,high polyreactivity
7,QVQLVESGGGLVQAGGSLRLSCAASGSIFYYNTMGWSRQSPGKERELVAAINTSGGSTYYADSVKGRFTISRDNATNTDYVQLNSLKPEDTAVYYCAVRYRYRFVAKGYWGQGTQVTVSS,high polyreactivity
8,QVQLVESGGGLVQAGGSLRLSCAASGSIFPRNAMGWYRQAPGKERELVAAITVSDGRTYYADSVKGRFTISRDNAKNTVYLQMNSLKPEDTAVYYCAAGYTYYSLYGYWGQGTQVTVSS,low polyreactivity
9,QVQLVESGGGLVQAGGSLRLSCAASGRTFRDYVMGWYRQAPGKERELVAVISYRGSTYYADSVKGRFTISRDNAKNTVYLLMNSLKPEDTAVYYCAARFSLEGGYYWGQGTQVTVSS,low polyreactivity
10,QVQLVESGGGLVQAGGSLRLSCAASGFIFGYYTMGWYRQAPGKERELVASITRGGSTNYADSVKGRFTISRDNAKNTVYIQMNSLKPEDTAVYYCAKRYAQTYSVSRYYYWGQGTQVTVSS,high polyreactivity
11,QVQLVESGGGLVQAGGSLRLSCAASGSNFHQYAMGWYRQAPGKERELVAGINWSGGSTYYADSVKGRFTISRDNAKNTVYLQMNSLKPEDTAVYYCAKRYQLARAAYTGGYWGQGTQVTVSS,high polyreactivity
12,QVQLVESGGGLVQAGGSLRLSCAASGYIFERTAMGWYRQAHGKERELVAAITDDGDDTYYADSVKGRFTISRDNAKNTVYLQMNSLKPEDTAVFYCAKDLYYGDYYYWGQGTQVTVSS,low polyreactivity
13,QVQLVESGGGLVQAGGSLRLSCAASGNILSVYTMGWYRQAPGKERELVATITYSGDRTYADSVKGRFTISRDNAKKTVYLQMNSLKPEDTAVYYCNAVYYREGMDYWGQGTQVTVSS,low polyreactivity
14,QVQLVESGGGLVQAGGSLRLSCAASGSIFVQYAMGWYRQAPGKERELVATISSSGGSTYYADSVKGRFTISRDNAKNTVYLQMNRLKPEDTAVYYCAADWTLDPSYGYYADDYWGQGTQVTVSS,low polyreactivity
15,QVQIVESGRGLFQAGGSLRISCPASGYIFLANAMGLYRQAPGKERELVAAITSGGGGTYYADSVKARFTISGDNAKNPVYLLMNTLKPEDTAVYHCAADHGRDGSSIEYWGHGTQVTVSS,low polyreactivity
16,QVQLGDSGGGLVQAGGSLRLSCAASGSIFSKYAMGWSRKAPGKERELVATISSSVGSTYYADSVKGRFTISRDNAKNSVYLQMNSLKPEDTAVYYCAARPDYEYGTHYRGGYWGQGTQVTVSS,low polyreactivity
17,QVQLVESGGGLVQAGGSLRLSCAASGSTFFPYAMGWYRQAPGKERELVADITYSGASTYYADSVKGRFTISRDNAKNTVYLQMNSLKPEDTAVYYCAALVWYGYYSLGQGTQVTVSS,low polyreactivity
18,QVQLVESGGGLVQAGGSLRLSCAASGRTFYWNAMGWYRQAPGKERELVASINGGGSTYYADSVKGRFTISRDNAKNTVYLQMNSLKPEDTAVYYCNVRYYFPRYQQRYQLNEYYYWGQGTQVTVSS,low polyreactivity
19,QVQLVESGGGLVQAGGSLRLSCAASGITFVNNAMGWYRQAPGKEREFVAAISWSGGNTYYADSVKGRFTISRDNAKNTVYLQMISLKPEDTAVYYCSGYISRSRFRFYYWGQGTQVTVSS,low polyreactivity
20,QVQLVESGGGLVQAGGSLRLSCAASGLTFWRYTMGWYRPAPGKERELVAVITYRGGSTYYADSVKGRFTISRDYAKNTVYLQMNSLKPEDTAVYYCAAGLSTYGLTYDYWGQGTQVTVSS,high polyreactivity
21,QVQLVESGGGLVQAGGSLRLSCAASGSTFGYYAMGWYRQAPGKERELVAAISGSGGSTYYADSVKGRFTISRDNAKNTVYLQMNSLKPEDTAVYYCAATFHRLPKWGSPYYYWGQGTQVTVSS,high polyreactivity
22,QVQLVESGGGLVQAGGSLRLSCAASGIIFVYYAMGWYRQAPGKERELVAAINWSGGSTYYADSVKGRFTISRDNAKNTVYLQMNSLKPEDTAVYYCAASSYITSDQRFYYWGQGTQVTVSS,high polyreactivity

row,Sequence,polyreactivity (PSR sort gate)
1,QDQLVESGGGLVQAGGSLRLSCAASGFTFVINDMGWYRQAPGKERELVADITSGGDTYYADSVKGRFTISRDNAKNTVYLQMNSLKPEDTAVYYCNTDTYFPLYDYWGQGTQVTVSS,low polyreactivity
2,QVQLVESGGGLVQAGGSLRLICAASGRIFRGYAMGWYRQAPGKERELVAAISGRGGRTNYADSVKGRFTISRDNAKNTVYLQMNSLKPEDTAVYYCATVPYTASRYEYWGQGTQVTVSS,high polyreactivity
3,QVQLVESGGGLVQAGGSLRLSCAASGSTFDSNAMGWYRQAPGKERELVAAIDYSSDSTYYADSVKGRFTISRDNAKNTVYLQMNSLKPEDTAVYYCAADIPPWGGDYWGQGTQVTVSS,low polyreactivity
4,QVQLQESGGGLVQAGGSLRLSCAAIGSISILQSMGWYRQAPGKERELVAGINWGATTYYADSVKGRLTTSRDYAKNTVYLQMNSLKPEDTAVYYCAVPTYYTYPLLYWGQGTQVTVSS,low polyreactivity
5,QVQLVESGGGLVQAGGSLRLSCAASGRIFYRNAMGGSRQAPGKERELVAAISYSGGSTYYADSVKGRFTISRDNAKNTVYLQMNSLKPEDTAVYYCAAARDRWGNYWGQGTQVTVSS,high polyreactivity
6,QVQLQESGGGLVQAGGSLRLSCAASGNIYDADIMGWYRQAPAKERELVTSITDGGSTNYADSVKGRFTISRDNAKNTVYLQMNSLKPEDTAVYYCAAIAYPDIPTSFDYNSDYSYWGQGTQVTVSS,low polyreactivity
7,KVQLLYSAGGLVHAGGSLRLSCAASGNIFRSYAMGWYRQAPGKERELVAAISSRGGSTYYADTVKVRFTISRDNAMNTVYLQMNSLKPEDTAVYYCNAPSTQQGPKYDYWGQGTQVTVSS,low polyreactivity
8,QVQLVESGGGLVQAGGSLRFSCAASGSTFGTYAMGWYRQAPGKERELVAAITSGGSTDYADSVKGRFTISRDNAKNTVYLQMNSLKPEDTAVYYCNATWELLSYYYLFWGYDYWGQGTQVTVSS,low polyreactivity
9,QVQLEESGGGLVQAGGSLRLSCAASGRTFSIYAMGWYRQAPGKERELVASITGRGTRTYYADSVKGRFTISRDNAKNTVYLQMNSLKPEDTAVYYCNARGKVQSSYDDDYWGQGTQVTVSS,high polyreactivity
10,QVQLVESGGGLVHSGGSLRLSCAASGRIFLPYGMGWYRKAPGKERELVATITIGGSTTYADSVKGRFTISRDNAKNTVYLLMNSLKPEDTAVYYCAVLRWVYYLHGYDYWGHGTQVTVSS,low polyreactivity
11,QVQLVESGGGLVQAVGSLRLSCAASGSTFPRYAMRWYRQAPGKERELVAAISRSGGSTYYADSVKGRFTISRDNATNTVYLQMNSLKPEDTAVYYCAARDDRGSYKYDYWRQGTQVTVSS,high polyreactivity
12,QVQLVESGGGLVQAGGSLRLSCAASGRTFSVNAMGWYRQAPGKERELVATISYRGGSTYYADSVKGRFTISRDNAKNTVYLQMNSLKPEDTAVYYCAAGWRYWGRIYRDYDSWGQGTQVTVSS,high polyreactivity
13,QVQLVESGGGLVQAGGRLRLSCAASGIIFVVNDMGWYRQAPGKEWELVADISDSGGSTNYADSVKGRFTISRDKAKNTVYLQMNSLKPEDTAVYYCAADSADPTEYDYWGQGTQVTVSS,low polyreactivity
14,QVQLVESGGGLVQAGGSLRLSCASSGLTFYPYAMGWYRQAPGKERELVAAISKSGGRTSYADSVKGRFTISRDNAKNTVYLQMNSLKPEDTAVYYCNARSGTFGYSTYGYWGQGTQETVSS,high polyreactivity
15,QVQLVESGGGLVQAGGSLRLSCAASGRTFVINAMGWYRQAPGKERELVAAISRGGSTNYADSVKGRFTISRDNAKNTVYLQMNSLKPEDTAVYYCNADYPNWWSPFDYWGQGTQVTVSS,low polyreactivity
16,QVQLVESGGGLVQAGGSLRLSCAASGSIFSSYAMGWYRPAPGKERELVAAITRTGGRTYYADSVKGRFTISRDNAKNTVYLQMNSLKPEDTAVYYCAAKQVSRGVAAYDYWGQGTQVTVSS,high polyreactivity
17,QVQLVESGGGLVQAGGSLRLSCAASGITLNRNAMGWYRQAPGKERELVARISRRGGTTYYADSVKGRFSISRDNAKNTVYLQMNSLKPEDTAVYYCNAGPYGGNPFDYWGQGTQVTVSS,high polyreactivity
18,QVQLVESGGGLVQAGGSLRLSCAASGIIFEGYAMGWYRQATGKERELVAAITGTADGTYYADSVKGRFTISRDNAKNTVYLQMNSLKPEDTAVYYCAKGSVVYLLRGVKGHSMDYWGQGTQVTVSS,low polyreactivity
19,QVQLVESGGGLVQAGGSLRLSCAASGIIFGLYTMGWYRQAPGKERELVAAISDSGGRTYYADSVKGRFTISRDNAKNTVYLQMNSLKPEDTAVYYCAAEFWYVLEYNYWGQGTQVTVSS,high polyreactivity
20,QVQLVESGGGLVQVGGSLRLSCAASGRTFYRYAMGWYRQAPGKERELVATINWTSGSTYYADSVKGRFTISRDKAKNTVYLQMNSLKPEDTAVYYCATVPHGKDTFGYWGQGTQVTVSS,high polyreactivity
21,QVQLVESGVGLVQAGGSLRLSCAASGIIFYDNALGWYRQAPGKERELVAAITDSGGTTYYADSVKGRFTISRDNAKNTVYLEMNSLKPEDNAVYYCAAETTATHGFAYDYWGQGTQVTVSS,low polyreactivity

# — the nanobody polyreactivity screen of Harvey et al. (2022)
